Results from paper PMC2905418, “High-affinity consensus binding of target RNAs by the STAR/GSG proteins GLD-1, STAR-2 and Quaking”.

Experiments:
GLD-1-STAR [1] = target: T1, GLD-1-STAR (C. elegans, UniProt Q17339 135-336); assay: competition FP; conditions: probe TGE; 10 mM Tris pH 8.0, 25 mM NaCl, 0.1 mM EDTA, 0.1 mg/mL tRNA, 5 ug/mL heparin, 0.01% IGEPAL CA630, room temperature, 3 h; EMSA gel 6% native, 0.5x TBE, 4 C
T1 sequence: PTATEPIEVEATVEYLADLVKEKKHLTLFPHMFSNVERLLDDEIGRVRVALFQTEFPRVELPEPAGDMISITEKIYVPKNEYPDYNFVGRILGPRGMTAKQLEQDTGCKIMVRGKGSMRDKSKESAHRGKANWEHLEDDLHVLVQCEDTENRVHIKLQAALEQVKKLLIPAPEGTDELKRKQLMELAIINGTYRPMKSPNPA

STAR-2-STAR (C. elegans) [2] = assay: fluorescence polarization; conditions: 10 mM Tris pH 8.0, 25 mM NaCl, 0.1 mM EDTA, 0.1 mg/mL tRNA, 5 ug/mL heparin, 0.01% IGEPAL CA630, room temperature, 3 h; EMSA gel 6% native, 0.5x TBE, 4 C
STAR-2-STAR (C. elegans) [3] = assay: EMSA; conditions: 10 mM Tris pH 8.0, 25 mM NaCl, 0.1 mM EDTA, 0.1 mg/mL tRNA, 5 ug/mL heparin, 0.01% IGEPAL CA630, room temperature, 3 h; EMSA gel 6% native, 0.5x TBE, 4 C
STAR-2-STAR (C. elegans) [4] = assay: competition FP; conditions: probe TGE; 10 mM Tris pH 8.0, 25 mM NaCl, 0.1 mM EDTA, 0.1 mg/mL tRNA, 5 ug/mL heparin, 0.01% IGEPAL CA630, room temperature, 3 h; EMSA gel 6% native, 0.5x TBE, 4 C
Qk-1-STAR [5] = target: T2, Qk-1-STAR (mouse, UniProt Q9QYS9 7-214); assay: EMSA; 10 mM Tris pH 8.0, 25 mM NaCl, 0.1 mM EDTA, 0.1 mg/mL tRNA, 5 ug/mL heparin, 0.01% IGEPAL CA630, room temperature, 3 h; EMSA gel 6% native, 0.5x TBE, 4 C; conditions: protein: recombinant, tags: MBP fusion, chain copies: 2
T2 sequence: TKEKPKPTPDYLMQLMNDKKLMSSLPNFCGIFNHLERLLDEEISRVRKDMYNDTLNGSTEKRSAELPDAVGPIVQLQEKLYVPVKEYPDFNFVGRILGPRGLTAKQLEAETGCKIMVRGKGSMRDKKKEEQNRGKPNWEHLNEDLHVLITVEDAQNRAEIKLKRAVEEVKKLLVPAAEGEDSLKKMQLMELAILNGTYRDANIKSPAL

Qk-1-STAR [6] = target: T2, Qk-1-STAR; assay: EMSA; second shift (K2); 10 mM Tris pH 8.0, 25 mM NaCl, 0.1 mM EDTA, 0.1 mg/mL tRNA, 5 ug/mL heparin, 0.01% IGEPAL CA630, room temperature, 3 h; EMSA gel 6% native, 0.5x TBE, 4 C; conditions: protein: recombinant; tags: MBP fusion; chain copies: 2; label: 5' 32P
Qk-1-STAR [7] = target: T2, Qk-1-STAR; assay: EMSA; first shift (K1); 10 mM Tris pH 8.0, 25 mM NaCl, 0.1 mM EDTA, 0.1 mg/mL tRNA, 5 ug/mL heparin, 0.01% IGEPAL CA630, room temperature, 3 h; EMSA gel 6% native, 0.5x TBE, 4 C; conditions: protein: recombinant; tags: MBP fusion; chain copies: 2; label: 5' 32P
Qk-1-STAR [8] = target: T2, Qk-1-STAR; assay: competition FP; probe C21A TGE; 10 mM Tris pH 8.0, 25 mM NaCl, 0.1 mM EDTA, 0.1 mg/mL tRNA, 5 ug/mL heparin, 0.01% IGEPAL CA630, room temperature, 3 h; EMSA gel 6% native, 0.5x TBE, 4 C; conditions: protein: recombinant; tags: MBP fusion; chain copies: 2
Qk-1-STAR [9] = target: T2, Qk-1-STAR; assay: fluorescence polarization; 10 mM Tris pH 8.0, 25 mM NaCl, 0.1 mM EDTA, 0.1 mg/mL tRNA, 5 ug/mL heparin, 0.01% IGEPAL CA630, room temperature, 3 h; EMSA gel 6% native, 0.5x TBE, 4 C; conditions: protein: recombinant; tags: MBP fusion; chain copies: 2; label: 5' 32P (EMSA), 5' fluorescein (FP)
GLD-1-STAR [10] = target: T1, GLD-1-STAR; assay: fluorescence polarization; slightly tighter than WT TGE; 10 mM Tris pH 8.0, 25 mM NaCl, 0.1 mM EDTA, 0.1 mg/mL tRNA, 5 ug/mL heparin, 0.01% IGEPAL CA630, room temperature, 3 h; EMSA gel 6% native, 0.5x TBE, 4 C; conditions: protein: recombinant; tags: MBP fusion; chain copies: 2; label: 5' 32P (EMSA), 5' fluorescein (FP)
GLD-1-STAR [11] = target: T1, GLD-1-STAR; assay: competition FP; probe TGE; 10 mM Tris pH 8.0, 25 mM NaCl, 0.1 mM EDTA, 0.1 mg/mL tRNA, 5 ug/mL heparin, 0.01% IGEPAL CA630, room temperature, 3 h; EMSA gel 6% native, 0.5x TBE, 4 C; conditions: protein: recombinant, tags: MBP fusion, chain copies: 2
GLD-1-STAR [12] = target: T1, GLD-1-STAR; assay: as above; conditions: protein: recombinant; tags: MBP fusion; chain copies: 2
GLD-1-STAR [13] = target: T1, GLD-1-STAR; assay: competition FP; slightly tighter than WT 12-mer; 10 mM Tris pH 8.0, 25 mM NaCl, 0.1 mM EDTA, 0.1 mg/mL tRNA, 5 ug/mL heparin, 0.01% IGEPAL CA630, room temperature, 3 h; EMSA gel 6% native, 0.5x TBE, 4 C; conditions: protein: recombinant; tags: MBP fusion; chain copies: 2
GLD-1-STAR [14] = target: T1, GLD-1-STAR; assay: fluorescence polarization; 10 mM Tris pH 8.0, 25 mM NaCl, 0.1 mM EDTA, 0.1 mg/mL tRNA, 5 ug/mL heparin, 0.01% IGEPAL CA630, room temperature, 3 h; EMSA gel 6% native, 0.5x TBE, 4 C; conditions: protein: recombinant; tags: MBP fusion; chain copies: 2; label: 5' 32P (EMSA), 5' fluorescein (FP)
[15] = label: 5' 32P (EMSA), 5' fluorescein (FP)

## poly-U, two hexamers, 2-nt spacing
GLD-1-STAR [1]
  Ki: 22.7 nM

## UAUUUAAUUUCUUAUCUACUCAUAUCUA [WT TGE 28-mer]
STAR-2-STAR (C. elegans) [2]
  Kd: 40 nM
STAR-2-STAR (C. elegans) [3]
  Kd: 36 nM

## poly-U, two hexamers, 0-nt spacing
GLD-1-STAR [1]
  Ki: 25.3 nM

## poly-U, one hexamer at 5' end
GLD-1-STAR [1]
  Ki: 110 nM

## AUCUAAUCAUAU [C19A 12-mer (WT background)]
STAR-2-STAR (C. elegans) [4]
  IC50 ratio, WT half-site vs mutant probe (IC50 WT half-site/C19A): 4.2

## UAUUUAAUUUCUUAUCUACUAAUAUCUA [C21A TGE 28-mer]
STAR-2-STAR (C. elegans) [2]
  Kd: 5 nM
STAR-2-STAR (C. elegans) [3]
  Kd: 1.2 nM

## AUCUACUCAUAU [WT TGE half-site 12-mer (14-25; A21C in the A21 background)]
STAR-2-STAR (C. elegans) [4]
  IC50 ratio (IC50 TGE/WT half-site): 0.13

## AUCUACUAAUAU [C21A (A21) half-site 12-mer]
STAR-2-STAR (C. elegans) [4]
  IC50 ratio (IC50 TGE/C21A 12-mer): 2.7
  IC50 ratio, WT half-site vs mutant probe (IC50 WT half-site/C21A): 20

## poly-U, two hexamers, 4-nt spacing
GLD-1-STAR [1]
  Ki: 12.2 nM

## poly-U, two hexamers, 12-nt spacing
GLD-1-STAR [1]
  Ki: 4.8 nM

## GACACUCGGUGCUCGGUGGAAAAAUAACCAU (ssRNA) [MBP:2-5'm1]
Qk-1-STAR [5]; label: 5' 32P, predicted secondary structure (mfold)
  Kd: 498 nM

## GACACACUAACCUCGGUGGAAACUCUUACAU (ssRNA) [MBP:2-3'm2]
Qk-1-STAR [6]
  Kd: 199 nM
Qk-1-STAR [7]
  Kd: 69 nM

## AUCUAAUAAUAU (ssRNA) [C19A 12-mer (A21 background)]
Qk-1-STAR [8]
  binding result: no binding

## UAUUCUCUUUCUUAUCUACUAAUAUCUA (ssRNA) [C21A TGE 5' mutant]
Qk-1-STAR [5]; label: 5' 32P
  Kd: 7.1 ± 1 nM

## UAUUUAAUUUCUUAUCUACUAAUAUCUA (ssRNA) [C21A TGE 28-mer]
Qk-1-STAR [9]
  Kd: 13 ± 2 nM
Qk-1-STAR [5]; [15]
  Kd: 1.2 ± 0.2 nM
GLD-1-STAR [10]
  binding result: binds

## AUCUACUCAUAUCUAAUCGUCC (ssRNA) [TGE 46-67]
GLD-1-STAR [11]
  Ki: 10.7 ± 2 nM

## AUCUAAUCGUCC (ssRNA) [TGE 56-67]
GLD-1-STAR [12]
  binding signal: 32 fold weaker than TGE

## GACACACUAACCUCGGUGGAAAAAUAACCAU (ssRNA) [MBP:2 (WT)]
Qk-1-STAR [6]
  Kd: 269 ± 122 nM
Qk-1-STAR [7]
  Kd: 24.5 ± 5 nM

## GACACUCUCUCCUCGGUGGAAAAAUAACCAU (ssRNA) [MBP:2-5'm2]
Qk-1-STAR [5]; label: 5' 32P
  Kd: 100 nM

## UAUUUAAUUUCUUAUCUA (ssRNA) [TGE 1-18]
GLD-1-STAR [12]
  binding signal: 42 fold weaker than TGE

## AUCUACUCAUAU (ssRNA) [WT TGE half-site 12-mer (14-25; A21C in the A21 background)]
Qk-1-STAR [8]
  binding result: no binding
GLD-1-STAR [12]
  binding signal: ~9 fold weaker than TGE

## AUCUACUAAUAU (ssRNA) [C21A (A21) half-site 12-mer]
GLD-1-STAR [13]
  binding result: binds
Qk-1-STAR [8]
  Ki: 46 nM

## UUUUUUUUUUUUUUUUUUUUUUUUUUUU (ssRNA) [poly-U 28-mer]
GLD-1-STAR [11]
  binding result: no binding

## UAUUUAAUUUCUUAUCUACUCAUAUCUA (ssRNA) [WT TGE 28-mer]
GLD-1-STAR [11]; [15]
  Ki: 11.1 ± 4 nM
GLD-1-STAR [14]
  Kd: 32 ± 3 nM
Qk-1-STAR [9]
  Kd: 63 ± 4 nM
Qk-1-STAR [5]; [15]
  Kd: 49 ± 2 nM

## AUCUACUCAUAUCUACUCAUAU (ssRNA) [TGE 14-35]
GLD-1-STAR [11]
  Ki: 4.6 ± 0.8 nM
